Laboratory results published in patent publication US20080253962A1 (Bristol-Myers Squibb, published 2008).

T1: IRTA4-C9 antigen (fusion protein composed of the extracellular domain of the IRTA4 linked to the carboxy … (human, UniProt P02699 340-348 (bovine entry)))
T1 construct: domain: carboxy terminal nine amino acids
T1 sequence: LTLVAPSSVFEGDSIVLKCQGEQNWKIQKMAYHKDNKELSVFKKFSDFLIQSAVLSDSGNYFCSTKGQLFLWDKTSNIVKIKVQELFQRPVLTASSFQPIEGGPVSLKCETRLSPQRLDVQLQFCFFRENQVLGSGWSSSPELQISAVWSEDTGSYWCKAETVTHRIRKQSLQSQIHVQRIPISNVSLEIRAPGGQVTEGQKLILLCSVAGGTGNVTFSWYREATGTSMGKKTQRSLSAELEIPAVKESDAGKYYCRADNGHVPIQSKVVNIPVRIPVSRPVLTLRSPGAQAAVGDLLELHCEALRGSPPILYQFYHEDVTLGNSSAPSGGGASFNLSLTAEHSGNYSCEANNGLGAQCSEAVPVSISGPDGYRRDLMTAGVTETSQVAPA

T2: IRTA4, full length transmembrane form with N-terminal myc tag, expressed on transfected CHO cells (human, UniProt Q96LA5 20-508)
T2 construct: Full length cDNA in CHO cells; also called human IRTA-4; CHO line transfected with IRTA4; not shown: myc tag at the N-terminus
T2 sequence: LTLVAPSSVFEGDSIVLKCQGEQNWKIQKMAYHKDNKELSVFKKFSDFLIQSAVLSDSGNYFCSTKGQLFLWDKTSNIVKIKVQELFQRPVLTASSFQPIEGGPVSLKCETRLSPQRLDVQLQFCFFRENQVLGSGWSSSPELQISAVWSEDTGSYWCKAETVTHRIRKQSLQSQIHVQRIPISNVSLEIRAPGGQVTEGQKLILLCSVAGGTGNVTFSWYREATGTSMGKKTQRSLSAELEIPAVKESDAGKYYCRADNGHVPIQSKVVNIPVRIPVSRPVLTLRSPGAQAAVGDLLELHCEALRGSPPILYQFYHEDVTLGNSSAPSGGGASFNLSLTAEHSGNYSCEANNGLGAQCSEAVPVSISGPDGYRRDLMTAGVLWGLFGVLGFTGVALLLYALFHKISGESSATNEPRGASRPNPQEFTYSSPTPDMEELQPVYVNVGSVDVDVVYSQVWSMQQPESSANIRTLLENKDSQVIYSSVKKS

T3: IRTA3, full length transmembrane form with N-terminal myc tag, expressed on transfected CHO cells (human, UniProt Q96P31 18-734)
T3 construct: Full length cDNA in CHO cells; also called human IRTA-3; not shown: myc tag at the N-terminus
T3 sequence: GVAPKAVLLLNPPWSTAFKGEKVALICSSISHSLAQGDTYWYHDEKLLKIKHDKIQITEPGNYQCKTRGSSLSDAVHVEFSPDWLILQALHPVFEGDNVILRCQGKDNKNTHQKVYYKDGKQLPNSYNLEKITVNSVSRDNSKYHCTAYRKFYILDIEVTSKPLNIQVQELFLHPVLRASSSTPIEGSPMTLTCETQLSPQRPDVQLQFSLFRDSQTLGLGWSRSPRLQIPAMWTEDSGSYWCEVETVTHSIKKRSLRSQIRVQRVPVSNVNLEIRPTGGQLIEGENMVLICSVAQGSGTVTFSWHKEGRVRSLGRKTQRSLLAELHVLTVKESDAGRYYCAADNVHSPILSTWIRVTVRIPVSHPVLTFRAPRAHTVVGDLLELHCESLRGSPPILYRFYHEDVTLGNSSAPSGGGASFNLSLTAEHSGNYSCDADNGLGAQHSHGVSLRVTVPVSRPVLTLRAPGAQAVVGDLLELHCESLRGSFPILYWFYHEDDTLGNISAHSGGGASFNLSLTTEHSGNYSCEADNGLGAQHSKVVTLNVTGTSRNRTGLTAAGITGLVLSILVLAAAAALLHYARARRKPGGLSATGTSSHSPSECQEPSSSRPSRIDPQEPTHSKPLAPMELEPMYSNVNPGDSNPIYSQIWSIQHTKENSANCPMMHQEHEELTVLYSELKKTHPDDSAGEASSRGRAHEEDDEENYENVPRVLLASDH

T4: IRTA2, full length transmembrane form with N-terminal myc tag, expressed on transfected CHO cells (human, UniProt Q96RD9 16-977)
T4 construct: Full length cDNA in CHO cells; also called human IRTA-2; not shown: myc tag at the N-terminus
T4 chain: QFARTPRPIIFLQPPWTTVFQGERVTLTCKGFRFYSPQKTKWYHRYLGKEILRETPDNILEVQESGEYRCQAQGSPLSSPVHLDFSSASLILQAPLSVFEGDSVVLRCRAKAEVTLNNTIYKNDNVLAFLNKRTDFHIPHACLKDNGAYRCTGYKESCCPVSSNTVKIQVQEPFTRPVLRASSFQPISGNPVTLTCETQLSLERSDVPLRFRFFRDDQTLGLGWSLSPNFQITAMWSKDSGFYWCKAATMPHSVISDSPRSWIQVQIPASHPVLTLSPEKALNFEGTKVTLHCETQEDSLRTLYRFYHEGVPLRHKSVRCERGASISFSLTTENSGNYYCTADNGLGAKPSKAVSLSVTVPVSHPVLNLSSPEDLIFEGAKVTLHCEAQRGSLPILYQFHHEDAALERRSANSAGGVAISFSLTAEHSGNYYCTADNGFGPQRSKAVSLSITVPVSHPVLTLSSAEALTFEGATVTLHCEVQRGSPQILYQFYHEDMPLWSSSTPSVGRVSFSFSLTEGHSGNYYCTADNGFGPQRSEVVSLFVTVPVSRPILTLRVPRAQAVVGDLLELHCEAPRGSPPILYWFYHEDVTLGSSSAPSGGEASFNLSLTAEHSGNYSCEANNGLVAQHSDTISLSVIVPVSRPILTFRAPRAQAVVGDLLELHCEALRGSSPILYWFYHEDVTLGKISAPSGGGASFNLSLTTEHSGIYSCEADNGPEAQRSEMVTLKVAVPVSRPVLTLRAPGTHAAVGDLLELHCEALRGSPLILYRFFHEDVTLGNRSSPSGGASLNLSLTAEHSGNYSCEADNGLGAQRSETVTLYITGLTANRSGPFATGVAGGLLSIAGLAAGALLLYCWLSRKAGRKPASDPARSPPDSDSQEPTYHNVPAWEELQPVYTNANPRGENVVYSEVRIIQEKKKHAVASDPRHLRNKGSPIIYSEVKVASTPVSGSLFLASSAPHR

T5: IRTA1, full length transmembrane form with N-terminal myc tag, expressed on transfected CHO cells (human, UniProt Q96PJ5 20-515)
T5 construct: Full length cDNA in CHO cells; also called human IRTA-1; not shown: myc tag at the N-terminus
T5 sequence: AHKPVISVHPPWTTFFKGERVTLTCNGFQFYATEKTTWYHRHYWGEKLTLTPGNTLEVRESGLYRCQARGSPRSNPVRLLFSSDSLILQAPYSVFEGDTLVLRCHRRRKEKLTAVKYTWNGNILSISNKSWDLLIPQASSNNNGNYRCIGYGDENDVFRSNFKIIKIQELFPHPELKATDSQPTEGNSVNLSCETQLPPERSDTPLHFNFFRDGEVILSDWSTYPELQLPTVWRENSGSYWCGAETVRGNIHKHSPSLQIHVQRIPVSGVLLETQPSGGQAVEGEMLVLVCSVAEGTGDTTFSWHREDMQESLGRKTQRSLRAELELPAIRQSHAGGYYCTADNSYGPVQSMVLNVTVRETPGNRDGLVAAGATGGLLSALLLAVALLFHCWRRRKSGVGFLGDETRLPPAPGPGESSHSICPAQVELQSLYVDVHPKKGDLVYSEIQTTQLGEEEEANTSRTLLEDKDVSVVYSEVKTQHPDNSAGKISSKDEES

T6: IRTA5, full length transmembrane form with N-terminal myc tag, expressed on transfected CHO cells (human, UniProt Q96LA6 17-429)
T6 construct: Full length cDNA in CHO cells; also called human IRTA-5; not shown: myc tag at the N-terminus
T6 sequence: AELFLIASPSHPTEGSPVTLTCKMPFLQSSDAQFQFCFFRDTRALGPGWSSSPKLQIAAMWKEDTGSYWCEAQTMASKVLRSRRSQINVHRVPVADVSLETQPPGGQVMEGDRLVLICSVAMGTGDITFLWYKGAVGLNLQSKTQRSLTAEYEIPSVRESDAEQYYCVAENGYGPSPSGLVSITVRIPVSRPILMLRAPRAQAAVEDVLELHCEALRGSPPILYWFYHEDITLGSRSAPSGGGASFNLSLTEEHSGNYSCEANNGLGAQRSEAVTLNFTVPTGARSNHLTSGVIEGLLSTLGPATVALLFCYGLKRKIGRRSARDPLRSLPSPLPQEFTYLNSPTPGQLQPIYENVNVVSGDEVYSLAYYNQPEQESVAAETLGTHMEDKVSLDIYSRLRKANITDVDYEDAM


Tests used:
[1] = target: T1, IRTA4-C9 antigen (fusion protein …); assay: Biacore SPR, antibody captured by anti-human IgG on CM5 chip, IRTA4-C9 flowed at 50-400 nM, 1:1 Langmuir fit
Protocol: Anti-IRTA4 antibodies were characterized for affinities and binding kinetics by Biacore analysis (Biacore AB, Uppsala, Sweden). Purified anti-IRTA4 monoclonal antibodies were captured by anti-human IgG antibody covalently linked to a CM5 chip (carboxy methyl dextran coated chip) via primary amines, using standard amine coupling chemistry and kit provided by Biacore. Binding was measured by flowing the IRTA4-C9 antigen (a fusion protein composed of the extracellular domain of the IRTA4 linked to the carboxy terminal nine amino acids of rhodopsin) in HBS EP buffer (provided by Biacore AB) at concentrations of 400, 300, 200, 100, and 50 nM at a flow rate of 20 μl/min. The antigen-antibody association kinetics was followed for 10 minutes and the dissociation kinetics was followed for 10 minutes. The association and dissociation curves were fit to a 1:1 Langmuir binding model using BIAevaluation software (Biacore AB).

[2] = target: T2, IRTA4, full length transmembrane form …; assay: flow cytometry on IRTA4-transfected CHO cells, antibody at 10 µg/ml, FITC anti-human IgG detection, GMFI
Excerpt: (§1) Chinese hamster ovary (CHO) cell lines that express one of each of the five IRTA proteins at the cell surface were developed and used to determine the specificity of the IRTA4 monoclonal antibodies by flow cytometry. CHO cells were transfected with expression plasmids containing full length cDNA encoding transmembrane forms of IRTA1, IRTA2, IRTA3, IRTA4, or IRTA5. In addition, the transfected proteins contained a myc tag at the N-terminus for detection by anti-myc antibody. Binding of the two anti-IRTA4 monoclonal antibodies was assessed by incubating the transfected cells with each of the IRTA4 Abs at a concentration of 10 μg/ml. The cells were washed and binding was detected with a FITC-labeled anti-human IgG Ab. A murine anti-myc Ab followed by labeled anti-murine IgG was used as the positive control. Secondary antibody alone was used as a negative control. The results are depicted in FIG. 7. The IRTA4 monoclonal antibodies 9G11 and 13B1 bound to the CHO line transfected with IRTA4 but not to CHO lines expressing IRTA1, 2, 3 or 5 as measured by the mean fluorescent intensity (MFI) of staining.

[3] = target: T3, IRTA3, full length transmembrane form …; assay: flow cytometry on transfected CHO cells, GMFI
Excerpt: as §1

[4] = target: T4, IRTA2, full length transmembrane form …; assay: flow cytometry on transfected CHO cells, GMFI
Excerpt: as §1

[5] = target: T5, IRTA1, full length transmembrane form …; assay: flow cytometry on transfected CHO cells, GMFI
Excerpt: as §1

[6] = target: T6, IRTA5, full length transmembrane form …; assay: flow cytometry on transfected CHO cells, GMFI
Excerpt: as §1

| Kd [1] [nM] | koff [1] [s⁻¹] | kon [1] [M⁻¹ s⁻¹] | binding result [2] | binding result [3] | binding result [4] | binding result [5] | binding result [6] | Binder |
| --- | --- | --- | --- | --- | --- | --- | --- | --- |
| 3.48 | 0.000426 | 125000 | binds | no binding (tested: 10 µg/ml) | no binding (tested: 10 µg/ml) | no binding (tested: 10 µg/ml) | no binding (tested: 10 µg/ml) | 13B1 human monoclonal antibody (antibody, V domains shown, Hybridoma-derived fully human IgG with kappa light chain from KM mice; also called anti-IRTA4 HuMAb 13B1) VH: QVQLVQSGAEVKKPGASVKVSCKASGYNFNSYDISWVRQAAGQGLEWMGWMNPNSGYTSYAQKFQGRVTMTWNTSISTAYMELSSLRSEDSAVYYCAREGIVGAIGWFDPWGQGTLVTVSS VL: DIQMTQSPSSVSASVGDRVTITCRASQGISSWLAWYQHKPGKAPKLLIYAASSLQSGVPSRFSGSGSGTDFTLTISSLQPEDFATYYCQQANSFPLTFGGGTKVEIK |
| 2.8 | 7.4e-05 | 26300 | binds | no binding (tested: 10 µg/ml) | no binding (tested: 10 µg/ml) | no binding (tested: 10 µg/ml) | no binding (tested: 10 µg/ml) | 9G11 human monoclonal antibody (antibody, V domains shown, Hybridoma-derived fully human IgG with kappa light chain from KM mice; also called anti-IRTA4 HuMAb 9G11) VH: QVQLVQSGAEVKKPGASVKVSCKASGYTFTSYAMHWVRQAPGQRLEWMGWINVGNGNTRYSQKFQGRVTITRDTSASTAYMELSSLRSEDTAVYYCAREGSNGWHEDFDYWGQGTLVTVSS VL: EIVLTQSPATLSLSPGERATLSCRASQSVSSYLAWYQQKPGQAPRLLIYDASNRATGIPARFSGSGSGTDFTLTISSLEPEDFAVYYCQQRSDWPPSLTFGGGTKVEIK |
